Test results: patent US20250277023A1 (published 2025)
Positions count from the first letter of the chain named.

Tests used:
[1] = biological target: T1, PD-L1 (on CHO-PD-L1 cells) (UniProt Q9NZQ7 19-290); experiment: FACS binding; Fig. 21
[2] = biological target: T1, PD-L1 (on CHO-PD-L1 cells); experiment: FACS binding; Fig. 24
[3] = biological target: T1, PD-L1 (on CHO-PD-L1 cells); experiment: FACS binding; Fig. 25
[4] = biological target: T2, TIGIT (on CHO-TIGIT cells) (UniProt Q495A1 22-244); experiment: FACS binding; Fig. 17
T2 chain: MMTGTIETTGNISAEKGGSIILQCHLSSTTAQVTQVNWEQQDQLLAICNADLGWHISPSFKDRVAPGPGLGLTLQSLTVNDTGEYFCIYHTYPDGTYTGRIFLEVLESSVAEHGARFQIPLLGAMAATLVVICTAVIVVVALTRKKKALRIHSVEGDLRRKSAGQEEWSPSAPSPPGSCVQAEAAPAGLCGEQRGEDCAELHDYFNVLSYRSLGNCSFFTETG

[5] = biological target: T1, PD-L1 (on CHO-PD-L1 cells); experiment: FACS binding; Fig. 22

T1 sequence (Q9NZQ7 19-290): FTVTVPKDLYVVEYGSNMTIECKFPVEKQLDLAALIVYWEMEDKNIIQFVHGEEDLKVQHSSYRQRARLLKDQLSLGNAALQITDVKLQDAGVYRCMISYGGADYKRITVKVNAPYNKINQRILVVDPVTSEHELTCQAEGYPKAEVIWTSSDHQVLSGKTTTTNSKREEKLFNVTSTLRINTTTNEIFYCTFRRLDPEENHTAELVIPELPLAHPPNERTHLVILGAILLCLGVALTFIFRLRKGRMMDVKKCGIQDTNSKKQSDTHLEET

B1: R0952: TIGIT_VH_IL15/TIGIT_VL_IL15RA/PD-L1-Fab (bispecific antibody)
chain 1: not shown
chain 2: DIVMTQTPASVEVAVGGTVTIKCQASQSISSYLNWYQQKPGQPPKLLIYDALKLASGVPSRFSGSGSGTEYTLTISGVESADAATYYCQQEHSVGNVDNVFGGGTEVVVKGGGGSGGGGSGGGGSGGGGSGITCPPPMSVEHADIWVKSYSLYSRERYICNSGFKRKAGTSSLTECVLNKATNVAHWTTPSLKCIRDPALVHQRPAPPSTVTTAGVTPQPESLSPSGKEPAASSPSSNNTAATTAAIVPGSQLMPSKSPSTGTTEISSHESSHGTPSQTTAKNWELTASASHQPPGVYPQGHSDTT
heavy: EVQLLESGGGLVQPGGSLRLSCAASGFTFSSYIMMWVRQAPGKGLEWVSSIYPSGGITFYADTVKGRFTISRDNSKNTLYLQMNSLRAEDTAVYYCARIKLGTVTTVDYWGQGTLVTVSSAKTTAPSVYPLAPVCGDTTGSSVTLGCLVKGYFPEPVTLTWNSGSLSSGVHTFPAVLQSDLYTLSSSVTVTSSTWPSQSITCNVAHPASSTKVDKKIEPRGPTIKPCPPCKCPAPNLLGGPSVFIFPPKIKDVLMISLSPIVTCVVVDVSEDDPDVQISWFVNNVEVHTAQTQTHREDYNSTLRVVSALPIQHQDWMSGKEFKCKVNNKDLPAPIERTISKPKGSVRAPQVYVLPPPEEEMTKKQVTLTCRVTDFMPEDIYVEWTNNGKTELNYKNTEPVLKSDGSYFMASKLRVEKKNWVERNSYSCSVVHEGLHNHHTTKSFSRTPGK
light: QSALTQPASVSGSPGQSITISCTGTSSDVGGYNYVSWYQQHPGKAPKLMIYDVSNRPSGVSNRFSGSKSGNTASLTISGLQAEDEADYYCSSYTSSSTRVFGTGTKVTVLRTDAAPTVSIFPPSSEQLTSGGASVVCFLNNFYPKDINVKWKIDGSERQNGVLNSWTDQDSKDSTYSMSSTLTLTKDEYERHNSYTCEATHKTSTSPIVKSFNRNEC
Binder B1 has an EC50 [1] of 0.43 nM.

B2: R0951: TIGIT_VH_IL15RA/TIGIT_VL_IL15/PD-L1-Fab (bispecific antibody)
chain 1: QVQLESEGGLFKPTDTLTLTCTVSGSSLSSSYMSWVRQAPGKGLEWIGIIGSNGNTYYANWAKGRFTISKTSTTVELKITSPTTEDTATYFCARGGYRTSGMDPWGPGTLVTVSSGGGGSGGGGSGGGGSGGGGSGITCPPPMSVEHADIWVKSYSLYSRERYICNSGFKRKAGTSSLTECVLNKATNVAHWTTPSLKCIRDPALVHQRPAPPSTVTTAGVTPQPESLSPSGKEPAASSPSSNNTAATTAAIVPGSQLMPSKSPSTGTTEISSHESSHGTPSQTTAKNWELTASASHQPPGVYPQGHSDTTEPRGPTIKPCPPCKCPAPNLLGGPSVFIFPPKIKDVLMISLSPIVTCVVVDVSEDDPDVQISWFVNNVEVHTAQTQTHREDYNSTLRVVSALPIQHQDWMSGKEFKCKVNNKDLPAPIERTISKPKGSVRAPQVYVLPPPEEEMTKKQVTLWCMVTDFMPEDIYVEWTNNGKTELNYDNTEPVLDSDGSYFMYSDLRVEKKNWVERNSYSCSVVHEGLHNHHTTKSFSRTPGK
chain 2: not shown
heavy: B1 heavy
light: B1 light
Work on B2 yielded an EC50 [1] of 0.46 nM.

B3: R0968 (PD-L1 monoclonal antibody) (antibody, V domains shown)
VH: QVQLQESGPGLVKPSETLSLTCAVYGDSITSGYWNWIRKPPGKCLEYIGYISYTGSTYQNPSLKSRITMSRDTSKNQYYLKLSSVTAADTAVYYCARSRAWIRTYFDYWGQGTLVTVSS
VL: DIQMTQSPSSLSASVGDRVTITCSVSSSISSSNLHWYQQKPGKAPKPWIYGTSNLASGVPSRFSGSGSGTDYTLTISSLQPEDFATYYCQQWSSYPLTFGCGTKLEIK
Work on B3 yielded an EC50 [2] of 2.01 nM and an EC50 [3] of 2.91 nM.

B4: R0774 (Tigit monoclonal antibody) (antibody, V domains shown)
VH: QVQLVQSGAEVKKPGSSVKVSCKASGYSFTSYWMNWVRQAPGQGLEWIGMIRPSDSETRLNQMFKDRVTITVDKSTSTAYMELSSLRSEDTAVYYCAGIHDYGHGAYWGQGTLVTVSS
VL: DIQMTQSPSSLSASVGDRVTITCRASENIYSNLAWYQQKPGKSPKLLVYAASHLPDGVPSRFSGSGSGTDYSLTISSLQPEDFATYYCQHFWGTPRTFGQGTKLEIK
For B4, the EC50 [4] was 0.678 nM.

B5: R1123: TIGIT_VH_IL21R/TIGIT_VL_IL21/PD-L1-Fab (bispecific antibody)
chain 1: not shown
chain 2: not shown
heavy: EVQLQESGPGLVKPSETLSLTCAVYGDSITSGYWNWIRKPPGKGLEYMGYISYTGSTYQNPSLKSRITFSRDTSKNQYYLKLSSVTAADTATYYCARSRAWIRTYFDYWGQGTLVTVSSASTKGPSVFPLAPSSKSTSGGTAALGCLVKDYFPEPVTVSWNSGALTSGVHTFPAVLQSSGLYSLSSVVTVPSSSLGTQTYICNVNHKPSNTKVDKRVEPKSCDKTHTCPPCPAPELLGGPSVFLFPPKPKDTLMISRTPEVTCVVVDVSHEDPEVKFNWYVDGVEVHNAKTKPREEQYNSTYRVVSVLTVLHQDWLNGKEYKCKVSNKALPAPIEKTISKAKGQPREPQVYTLPPSREEMTKNQVSLWCLVKGFYPSDIAVEWESNGQPENNYDTTPPVLDSDGSFFLYSDLTVDKSRWQQGNVFSCSVMHEALHNHYTQKSLSLSPGK
light: EIVLTQSPDFQSVTPKEKVTITCSVSSSISSSNLHWYQQKPDQSPKLLIYGTSNLASGVPSRFSGSGSGTDFTLTINSLEAEDAATYYCQQWSSYPLTFGQGTKLEIKRTVAAPSVFIFPPSDEQLKSGTASVVCLLNNFYPREAKVQWKVDNALQSGNSQESVTEQDSKDSTYSLSSTLTLSKADYEKHKVYACEVTHQGLSSPVTKSFNRGEC
For B5, the EC50 [4] was 2.89 nM and the EC50 [5] was 5.22 nM.

B6: R1072: TIGIT_VH_IL15RA/TIGIT_VL_IL15/PD-L1-Fab (bispecific antibody)
chain 1: QVQLVQSGAEVKKPGSSVKVSCKASGYSFTSYWMNWVRQAPGQGLEWIGMIRPSDSETRLNQMFKDRVTITVDKSTSTAYMELSSLRSEDTAVYYCAGIHDYGHGAYWGQGTLVTVSSGGGGSGGGGSGGGGSGGGGSGITCPPPMSVEHADIWVKSYSLYSRERYICNSGFKRKAGTSSLTECVLNKATNVAHWTTPSLKCIRDPALVHQRPAPPSTVTTAGVTPQPESLSPSGKEPAASSPSSNNTAATTAAIVPGSQLMPSKSPSTGTTEISSHESSHGTPSQTTAKNWELTASASHQPPGVYPQGHSDTTEPKSSDKTHTCPPCPAPELLGGPSVFLFPPKPKDTLMISRTPEVTCVVVDVSHEDPEVKFNWYVDGVEVHNAKTKPREEQYNSTYRVVSVLTVLHQDWLNGKEYKCKVSNKALPAPIEKTISKAKGQPREPQVYTLPPSREEMTKNQVSLTCRVKGFYPSDIAVEWESNGQPENNYKTTPPVLKSDGSFFLASKLTVDKSRWQQGNVFSCSVMHEALHNHYTQKSLSLSPGK
chain 2: DIQMTQSPSSLSASVGDRVTITCRASENIYSNLAWYQQKPGKSPKLLVYAASHLPDGVPSRFSGSGSGTDYSLTISSLQPEDFATYYCQHFWGTPRTFGQGTKLEIKGGGGSGGGGSGGGGSGGGGSGNWVNVISDLKKIEDLIQSMHIDATLYTESDVHPSCKVTAMKCFLLELQVISLESGDASIHNTVQDLIILANNSLSSNGNVTESGCKECEELEEKNIKEFLQSFVHIVQMFINTS
heavy: B5 heavy with E1Q, M48I, F69M, T92V
light: DIQMTQSPSSLSASVGDRVTITCSVSSSISSSNLHWYQQKPGKAPKPWIYGTSNLASGVPSRFSGSGSGTDYTLTISSLQPEDFATYYCQQWSSYPLTFGQGTKLEIKRTVAAPSVFIFPPSDEQLKSGTASVVCLLNNFYPREAKVQWKVDNALQSGNSQESVTEQDSKDSTYSLSSTLTLSKADYEKHKVYACEVTHQGLSSPVTKSFNRGEC
B6 showed an EC50 [2] of 2 nM, an EC50 [5] of 3.73 nM and an EC50 [3] of 2.08 nM.

B7: R1109: TIGIT_VH_IL15RA (sushi65)/TIGIT_VL_IL15/PD-L1-Fab (bispecific antibody)
chain 1: QVQLVQSGAEVKKPGSSVKVSCKASGYSFTSYWMNWVRQAPGQGLEWIGMIRPSDSETRLNQMFKDRVTITVDKSTSTAYMELSSLRSEDTAVYYCAGIHDYGHGAYWGQGTLVTVSSGGGGSGGGGSGGGGSGGGGSGITCPPPMSVEHADIWVKSYSLYSRERYICNSGFKRKAGTSSLTECVLNKATNVAHWTTPSLKCIREPKSSDKTHTCPPCPAPELLGGPSVFLFPPKPKDTLMISRTPEVTCVVVDVSHEDPEVKFNWYVDGVEVHNAKTKPREEQYNSTYRVVSVLTVLHQDWLNGKEYKCKVSNKALPAPIEKTISKAKGQPREPQVYTLPPSREEMTKNQVSLTCRVKGFYPSDIAVEWESNGQPENNYKTTPPVLKSDGSFFLASKLTVDKSRWQQGNVFSCSVMHEALHNHYTQKSLSLSPGK
chain 2: B6 chain 2
heavy: B5 heavy with E1Q, M48I, F69M, T92V
light: B6 light
Binder B7 has an EC50 [3] of 1.56 nM.
